Experimental data: patent publication US12331106B2, “Anti-angiopoietin-2 antibodies that induce Tie2 activation” (Institute for Basic Science, priority 2018, dated 2025)
Substitutions are numbered along the chain they refer to.

T1: hAng2 (Homo sapiens, UniProt O15123)
T1 sequence (O15123 19-496): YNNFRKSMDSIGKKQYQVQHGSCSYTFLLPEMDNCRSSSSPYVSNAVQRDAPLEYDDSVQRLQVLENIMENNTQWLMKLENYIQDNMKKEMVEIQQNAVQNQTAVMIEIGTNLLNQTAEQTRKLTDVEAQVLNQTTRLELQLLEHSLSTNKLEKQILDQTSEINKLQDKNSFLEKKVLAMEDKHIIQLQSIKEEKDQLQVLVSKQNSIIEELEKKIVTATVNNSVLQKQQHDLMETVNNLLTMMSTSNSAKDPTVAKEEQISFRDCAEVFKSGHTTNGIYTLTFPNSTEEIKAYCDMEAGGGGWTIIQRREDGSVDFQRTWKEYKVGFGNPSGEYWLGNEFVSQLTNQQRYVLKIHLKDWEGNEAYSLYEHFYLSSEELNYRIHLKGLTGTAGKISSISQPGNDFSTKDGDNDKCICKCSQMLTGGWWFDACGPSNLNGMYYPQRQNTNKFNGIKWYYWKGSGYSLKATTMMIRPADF

B1: 2F10: mouse monoclonal anti-Ang2 antibody; VH SEQ ID NO: 29, VL SEQ ID NO: 31 (antibody, V domains shown)
VH: QVQLVESGGGLVKPGGSLKLSCAASGFTFSDYYMYWIRQTPEKRLEWVATINDGGSYTYYPDSVKGRFTISRDNAKNNLYLQMSSLKSEDTAMYYCARDWGLRPWFVYWGQGTLVTVSA
VL: DIVMTQSHKFMSTSVGDRVSITCKASQDVSTAVAWYQQKPGQSPKLLIYWASTRHTGVPDRFTGSGSGTDYTLTISSVQAEDLALYYCQQHYTTPPTFGSGTKLEIK
modifications: Heavy Chain Variable Region; Light Chain Variable Region
B2: 4E2: mouse monoclonal anti-Ang2 antibody; VH SEQ ID NO: 39, VL SEQ ID NO: 41 (antibody, V domains shown)
VH: EVQLQQSGPELEKPGASVKISCKASGYSFTGYNMNWVKQSNGKSLEWIGNIDPYYGGTSYNQKFKGKATLTVDKSSSTAYMQLKSLTSEDSAVYYCVRYGNYVDYWGQGTTLTVSS
VL: B1 VL with T93N
modifications: Heavy Chain Variable Region; Light Chain Variable Region

What was measured:
[1] = target: T1, hAng2; experiment: OCTET affinity of mouse monoclonal anti-Ang2 antibodies against hAng2; details: hAng2 fixed on AR2G biosensor, 1:1 binding model
Method: The affinity of mouse monoclonal antibody against hAng2 was measured using OCTET® system (ForteBio, real-time, label-free bio-layer interferometry system for determination of affinity, kinetics, and concentration). Specifically, buffer and samples were measured in total 200 μl/well using Black 96-well plates (96 well F-type black plates, Greiner). The biosensor used for affinity measurements was hydrated for 10 min before measurement with AR2G tip (ForteBio OCTET®). After the hydration, hAng2 was diluted in 10 mM sodium acetate, pH 6.0 buffer at a concentration of 10 μg/ml, fixed on AR2G biosensor, and blocked with 1M ethanolamine. The mouse monoclonal anti-Ang2 antibodies were diluted to 50, 25, 12.5, 6.25, 3.125, and 0 nM with 1× kinetic buffer, and subjected to association for 300 seconds and dissociation for 900 seconds. For affinity measurement (KD), the association rate (K-on) and dissociation rate (K-off) were analyzed by binding curve (global) and fitted to 1:1 binding model using OCTET® data analysis v9.0.0.10 program.

[2] = system: downstream signaling of the Tie2 receptor (Akt phosphorylation) in HUVECs; experiment: Akt phosphorylation in HUVECs by mouse anti-Ang2 antibodies plus hAng2 (immunoblot); format: cell-based, human; details: serum-starved HUVECs; antibody combined with hAng2 1 μg/ml; 30 min
Method: To investigate whether the mouse anti-Ang2 antibodies induce the downstream signaling of the Tie2 receptor in endothelial cells, HUVECs (LONZA™) were treated with a combination of hAng2 protein and anti-Ang2 antibody, and then the level of Akt phosphorylation, the main downstream signaling protein of Tie2 receptor, was analyzed by immunoblotting. As a negative control group, the full-length hAng2 (R&D® Systems) alone was treated into the cells.
Specifically, HUVECs (1×10^5 cells/ml) were cultured in EGM-2 medium (LONZA™) at 37° C. in a 60 mm culture dish. Cells (90% confluency) were incubated with serum-free EBM-2 medium for 4 hrs for serum starvation. The serum-starved HUVECs were treated with a mixture of anti-Ang2 antibody and hAng2 protein (1 μg/ml, R&D® Systems) and further incubated for 30 min. The cells were washed with cold PBS, treated with lysis buffer, and lysed at 4° C. for 20 min. Then, the cell lysates were prepared by centrifugation at 13000 rpm for 15 min. 5× SDS sample buffer was added to the cell lysate and the cell lysate was boiled at 95° C. for 5 min. Then, the cell lysate was subjected to SDS PAGE and proteins were transferred to a nitrocellulose membrane (GE).
To investigate Akt phosphorylation, the blot was blocked with 5% skim milk-containing TBS-T for 1 hr at room temperature (RT), and incubated with anti-phospho-Akt antibody (S473) at 4° C. for about 8 hrs. The amount of phospho-Akt was visualized by an enhanced chemiluminescence (ECL). Then, the membrane was incubated in a stripping buffer (Thermo) for 15 min, and then reprobed with an anti-Akt antibody to determine the amount of total Akt.

| Molecule | Koff [1] [s⁻¹] | Kon [1] [M⁻¹ s⁻¹] | Akt phosphorylation at S473 [2] |
| --- | --- | --- | --- |
| B1 | 1.71e-05 | 124000 | strongly induced |
| B2 | 0.000134 | 28300 | strongly induced |
